What is called stoichiometry N is the number of molecules, sites or subunits per partner or assembly. In general, Kd refers to a measure of binding affinity in units of concentration.

In assay [1] the target is Hcp (purified) (Acinetobacter baylyi). The experiment in a line: mass photometry.
Assay [2] shares this target. The experiment in a line: flow-induced dispersion analysis.
Assay [3] has as its target TagF, DyLight 488 labelled (Acinetobacter baylyi). Briefly: flow-induced dispersion analysis.

In the case of Hcp (purified) (natural protein), in assay [1], the percent of Hcp present as hexameric complex was greater than 93% and the stoichiometry N came out at 6. The same substance registered a stoichiometry N in assay [2] of 6. This substance had a Kd in assay [3] of 30.4 µM.

The values are drawn from doi:10.64898/2025.12.08.692957.
